From article PMC11485749 (mAbs, 2024)
Residue numbers refer to the chain shown, from its start. Where two headings read alike, the source gives them in different places. Values belong to the binder of their own block, whether it stands above or below them.

Columns and labels:
hCD200R1-iso4-Ref ECD [1] = target: T1, hCD200R1-iso4-Ref ECD (Homo sapiens, UniProt Q8TD46)
[2] = target: T2, recombinant MfCD200R1 ECD (Macaca fascicularis, UniProt G7NZT0); assay: SPR
[3] = target: T2, recombinant MfCD200R1 ECD; assay: SPR; remark: listed apart in the source
[4] = target: WT hCD200R1-iso4-Ref expressed on Expi293 cells (Homo sapiens, UniProt Q8TD46, strain); assay: flow cytometry on cells
WT hCD200R1-iso4-Ref expressed on Expi293 cells, sequence (Q8TD46 whole entry, looked up, change not shown, the tested form may be a part): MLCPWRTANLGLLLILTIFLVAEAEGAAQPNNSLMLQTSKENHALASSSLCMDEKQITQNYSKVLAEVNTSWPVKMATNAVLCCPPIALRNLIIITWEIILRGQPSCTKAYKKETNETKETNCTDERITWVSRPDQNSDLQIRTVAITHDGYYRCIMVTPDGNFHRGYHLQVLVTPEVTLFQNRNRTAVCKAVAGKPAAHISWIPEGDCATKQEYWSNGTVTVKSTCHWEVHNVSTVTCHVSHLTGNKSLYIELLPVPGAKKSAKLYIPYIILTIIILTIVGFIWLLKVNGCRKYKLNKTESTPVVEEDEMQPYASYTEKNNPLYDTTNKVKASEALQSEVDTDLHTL

hCD200R1-iso4-Ref ECD [5] = target: T1, hCD200R1-iso4-Ref ECD; assay: SPR

T1 sequence (Q8TD46 29-265): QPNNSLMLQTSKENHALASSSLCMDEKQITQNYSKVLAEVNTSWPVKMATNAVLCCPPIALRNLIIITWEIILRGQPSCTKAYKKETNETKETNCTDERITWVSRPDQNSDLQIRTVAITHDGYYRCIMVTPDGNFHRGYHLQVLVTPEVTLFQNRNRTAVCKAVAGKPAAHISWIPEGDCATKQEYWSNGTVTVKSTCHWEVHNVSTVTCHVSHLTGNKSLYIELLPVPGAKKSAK

Kd [2]: 2 nM
B1: 23ME-00611 (antibody, V domains shown)
VH: EVQLQESGPGLVKPSETLSLTCTVSGFSLTNYRVSWVRQPPGKGLEWLGVMYAGGGTNYNSVFKSRLTISKDNSKNQVSLKLSSVTAADTAVYYCARERPLTGVMDNWGQGTLVTVSS
VL: DIVLTQSPDSLAVSLGERATINCRASESVDYSGNSFMHWFQQKPGQPPKLLIYRASNLESGIPDRFSGSGSRTDFTLTISSLQAEDVAVYYCHQSNWDPPTFGGGTKVEIK
Kd (hCD200R1-iso4-Ref ECD [1]): 1 nM

binding result [3]: binds
B2: 23ME-00610_E93W (antibody, V domains shown)
VH: B1 VH with R33A, Y52W, N107Y
VL: B1 VL

binding result [3]: binds
B3: 23ME-00610_A33R (antibody, V domains shown)
VH: B1 VH with Y52W, N107Y
VL: B1 VL with W97E

binding result [2]: no binding (tested: up to 200 nM)
B4: 23ME-00610 (antibody, V domains shown)
VH: B1 VH with R33A, Y52W, N107Y
VL: B1 VL with W97E
binding result [4]: binds | Kd (hCD200R1-iso4-Ref ECD [5]): 0.1 nM
